# Article PMC8280106 (2021)
# B1: extracellular domain of CD147 (CD147^ECD) [human] / Trefoil factor 3 (TFF3), recombinant mature form (residues 22-80) [human] (parent complex)
# chain 1: AAGTVFTTVEDLGSKILLTCSLNDSATEVTGHRWLKGGVVLKEDALPGQKTEFKVDSDDQWGEYSCVFLPEPMGTANIQLHGPPRVKAVKSSEHINEGETAMLVCKSESVPPVTDWAWYKITDSEDKALMNGSESRFFVSSSQGRSELHIENLNMEADPGQYRCNGTSSKGSDQAIITLRVRSH
# chain 2: EEYVGLSANQCAVPAKDRVDCGYPHVTPKECNNRGCCFDSRIPGVPWCFKPLQEAECTF
# Variants of: B1
# Assay: SPR (Biacore); value read at end of injection, ~120 s; concentrations not given; read off a plot
row,response,Variant
1,~8.7 Ru,chain 1 R145A
2,~2 Ru,chain 1 R33A
3,~4.7 Ru,chain 1 V110A
4,~14 Ru,chain 1 T100A
5,~4.3 Ru,chain 1 G74A
